In the Human Domainome abundance scans (Beltran et al. 2025):
± gives the uncertainty stated by the source.

B1: Transcription elongation regulator 1-like protein, residues 448 to 504; numbered along this chain, Q5VWI1 (parent)
chain: LPLEERVTHFRDMLLERGVSAFSTWEKELHKIVFDPRYLLLNSEERKQIFEQFVKTR

Variants of: B1
Assay: abundance fitness (aPCA) (normalised: wild type 0, dead -1); higher = more abundant; growth selection in yeast, the domain comes from the species named
Details: Homo sapiens

Row | Variant | abundance fitness
1 | D35R | -0.436 ± 0.21
2 | D35H | -0.354 ± 0.42
3 | D35T | -0.892 ± 0.19
4 | K47R | 0.025 ± 0.1
5 | K47I | 0.151 ± 0.44
6 | K47L | -0.286 ± 0.15
7 | K47A | -0.381 ± 0.1
8 | K47C | -0.165 ± 0.26
9 | K47G | -0.31 ± 0.12
10 | K47P | -0.783 ± 0.34
11 | L29H | 0.264 ± 0.19
12 | L29W | -0.986 ± 0.46
13 | L29C | -0.373 ± 0.42
14 | L29G | -0.667 ± 0.092
15 | L29I | 0.281 ± 0.32
16 | L29K | 0.158 ± 0.16
17 | L29S | -0.452 ± 0.14
18 | L29M | 0.377 ± 0.25
19 | S43Q | 0.07 ± 0.4
20 | S43V | -0.309 ± 0.18
21 | S43M | -0.134 ± 0.15
22 | S43E | 0.341 ± 0.085
23 | S43G | 0.034 ± 0.079
24 | S43K | -0.145 ± 0.13

Row | Variant | abundance fitness
25 | R37M | -0.81 ± 0.24
26 | R37A | -1.19 ± 0.43
27 | R37V | -0.564 ± 0.13
28 | R37P | -0.769 ± 0.34
29 | N42E | -0.023 ± 0.15
30 | N42K | -0.109 ± 0.13
31 | N42D | 0.035 ± 0.16
32 | N42P | -0.533 ± 0.26
33 | N42Q | 0.013 ± 0.25
34 | N42M | -0.687 ± 0.33
35 | S23G | -0.353 ± 0.47
36 | E26R | -0.861 ± 0.29
37 | E26W | -0.84 ± 0.26
38 | E26L | -0.564 ± 0.11
39 | E26T | -0.524 ± 0.25
40 | E26P | -0.294 ± 0.39
41 | E26D | -0.168 ± 0.31
42 | E26C | 0.153 ± 0.33
43 | E26K | -1.04 ± 0.42
44 | L41T | -0.592 ± 0.087
45 | L41V | -0.226 ± 0.077
46 | L41N | -0.755 ± 0.098
47 | L41H | -0.543 ± 0.091
48 | L41K | -1.11 ± 0.36

Row | Variant | abundance fitness
49 | L41I | -0.409 ± 0.071
50 | L41Y | -0.755 ± 0.19
51 | L41Q | -0.473 ± 0.21
52 | L41E | -0.781 ± 0.18
53 | L41P | -0.917 ± 0.15
54 | L40S | -0.619 ± 0.25
55 | L40D | -1.05 ± 0.36
56 | L40A | -0.504 ± 0.094
57 | L40P | -0.688 ± 0.32
58 | L40E | -0.466 ± 0.13
59 | L40M | -0.295 ± 0.3
60 | V54P | -0.811 ± 0.36
61 | V54S | -0.222 ± 0.12
62 | V54W | -0.624 ± 0.18
63 | V54K | -0.396 ± 0.49
64 | V54R | -0.348 ± 0.084
65 | V54F | -0.082 ± 0.35
66 | V54D | -0.32 ± 0.32
67 | V54M | -0.505 ± 0.38
68 | V54C | -0.303 ± 0.27
69 | E4C | -0.458 ± 0.18
70 | E4A | -0.368 ± 0.33
71 | E4P | -0.711 ± 0.29
72 | E4N | 0.154 ± 0.4

Row | Variant | abundance fitness
73 | E28A | -0.822 ± 0.19
74 | E28C | -0.542 ± 0.27
75 | E28M | -1.04 ± 0.4
76 | E28V | -0.71 ± 0.12
77 | S20T | -0.38 ± 0.33
78 | S20N | 0.589 ± 0.17
79 | S20C | -0.169 ± 0.25
80 | S20F | -0.523 ± 0.14
81 | E16C | -0.632 ± 0.22
82 | E16N | -0.657 ± 0.36
83 | E16Y | -0.882 ± 0.24
84 | E16L | -1.01 ± 0.49
85 | E16Q | 0.176 ± 0.12
86 | R46C | -0.657 ± 0.34
87 | R46V | -0.436 ± 0.32
88 | R46S | -0.644 ± 0.23
89 | R46G | -0.39 ± 0.2
90 | R46K | -0.429 ± 0.49
91 | D12Q | -0.223 ± 0.24
92 | D12K | -0.119 ± 0.1
93 | D12F | -0.624 ± 0.45
94 | D12Y | -0.112 ± 0.34
95 | D12M | 0.191 ± 0.12
96 | D12V | -0.641 ± 0.26

Row | Variant | abundance fitness
97 | Q52F | -0.922 ± 0.25
98 | Q52W | -0.621 ± 0.14
99 | Q52Y | -0.804 ± 0.22
100 | Q52K | -0.238 ± 0.16
101 | Q52E | 0.114 ± 0.19
102 | F22N | 0.471 ± 0.21
103 | F22G | 0.04 ± 0.069
104 | F22L | -0.045 ± 0.14
105 | F22Y | -0.031 ± 0.088
106 | F22S | 0.063 ± 0.092
107 | F22P | -0.48 ± 0.28
108 | K31P | -0.681 ± 0.27
109 | K31F | -0.587 ± 0.31
110 | K31M | -0.496 ± 0.17
111 | L15I | -0.315 ± 0.32
112 | L15R | 0.139 ± 0.088
113 | L15P | -0.548 ± 0.28
114 | L15G | -0.273 ± 0.11
115 | M13C | -0.804 ± 0.16
116 | M13P | -0.257 ± 0.39
117 | M13S | -0.743 ± 0.29
118 | M13V | -0.327 ± 0.13
119 | M13K | -0.555 ± 0.42
120 | M13I | -0.623 ± 0.17

Row | Variant | abundance fitness
121 | M13W | -0.08 ± 0.31
122 | R6E | -1.01 ± 0.44
123 | R6W | -0.774 ± 0.38
124 | R6Q | -0.744 ± 0.29
125 | R6N | -0.485 ± 0.2
126 | R6M | -0.266 ± 0.47
127 | R6F | -0.292 ± 0.41
128 | R6G | -0.894 ± 0.23
129 | L3K | 0.487 ± 0.15
130 | L3S | -0.704 ± 0.23
131 | L3D | -0.135 ± 0.23
132 | L3I | 0.427 ± 0.31
133 | L3V | 0.28 ± 0.11
134 | L3P | -0.212 ± 0.4
135 | F50D | -0.624 ± 0.25
136 | F50Q | -0.866 ± 0.23
137 | F50K | -0.835 ± 0.4
138 | F50R | -0.714 ± 0.14
139 | F50M | -0.605 ± 0.5
140 | F53A | -0.949 ± 0.1
141 | F53Y | 0.15 ± 0.14
142 | V7S | -0.334 ± 0.24
143 | V7G | -0.407 ± 0.14
144 | V7L | -0.096 ± 0.15

Row | Variant | abundance fitness
145 | V7W | -0.594 ± 0.5
146 | V7K | 0.843 ± 0.13
147 | V7H | -0.303 ± 0.22
148 | V7E | -0.406 ± 0.4
149 | V7F | 0.022 ± 0.14
150 | V7I | 0.199 ± 0.16
151 | T8D | -0.45 ± 0.18
152 | T8P | -0.013 ± 0.37
153 | T8G | -0.35 ± 0.13
154 | T8R | -0.631 ± 0.34
155 | T8F | -0.291 ± 0.31
156 | T8V | -0.287 ± 0.11
157 | T8Q | -0.563 ± 0.41
158 | P36A | -0.42 ± 0.13
159 | P36W | -0.011 ± 0.19
160 | P36C | -0.869 ± 0.28
161 | P36G | -0.514 ± 0.087
162 | E44I | 0.179 ± 0.37
163 | E44F | -0.21 ± 0.13
164 | E44R | -0.201 ± 0.12
165 | E44D | 0.27 ± 0.17
166 | E44C | -0.195 ± 0.22
167 | E44G | -0.211 ± 0.12
